In test [1] the target is T1, PSA 146-154 peptide/HLA-A*02:01 complex on the cell surface (human).
T1 construct: also called PSA146/HLA-A*02:01; PSA146-loaded T2 cells
The test can be described thus: flow cytometry, phage on T2 cells, anti-M13 + R-PE anti-mouse IgG. How it is done: (§1) Individual phage clones from enriched phage display panning pools against PSA146/HLA-A*02:01 complex were incubated in the coated plates. Binding of the phage clones was detected by HRP-conjugated anti-M13 antibodies and developed using HRP substrate. The absorbance was read at 450 nm. […] Then, unique antibody clones were identified through DNA sequencing of ELISA-positive clones. […] T2 cells loaded with different peptides and β2M were first stained with purified scFv phage clones, followed by staining with a mouse anti-M13 mAb, and finally R-PE conjugated horse anti-mouse IgG from Vector Labs. Each step of the staining was performed for between 30-60 minutes on ice and the cells were washed twice between stainings. All 16 clones recognized PSA146-loaded T2 cells specifically. FIG. 3 provides examples of PSA146/HLA-A*02:01 specific phage clone binding to peptide-loaded T2 cells through FACS.
(In general: A flow cytometer gives signals particle by particle.)

Test [2] deals with T2, HLA-A*02:01 on T2 cells with no peptide loaded (human).
T2 construct: TAP-deficient T2 cells, no peptide loaded from outside; also called T2 cells without peptide loading
Described as above. How it is done: as §1

In the next test the target is T3, Bio-P19 member A2E-9 (chain 2 (heavy): C-terminal BirA substrate peptide, biotinylated there by BirA; tag letters not given, left out).
T3 construct: also called biotinylated control peptide A2E-9/HLA-A*02:01 monomer; not shown: BirA substrate peptide (BSP) tag at the C-terminus of the heavy chain
The test can be described thus: phage ELISA, streptavidin plate, anti-M13-HRP. How it is done:
as §1
A general note: ELISA stands for enzyme-linked immunosorbent assay.

The target in a further test is T4, Bio-P19 member A2E-19 (chain 2 carries a C-terminal BirA substrate peptide (BSP), enzymatically biotinylated; the BSP letters are not given in the patent and are left out).
T4 construct: also called biotinylated control peptide A2E-19/HLA-A*02:01 monomer
The test can be described thus: phage ELISA, streptavidin plate, anti-M13-HRP. How it is done:
as §1

The target of a further test is T5, Bio-P19 member A2E-4 (chain 2 carries a C-terminal BirA substrate peptide (BSP), enzymatically biotinylated; the BSP letters are not given in the patent and are left out).
T5 construct: also called biotinylated control peptide A2E-4/HLA-A*02:01 monomer
The test can be described thus: phage ELISA, streptavidin plate, anti-M13-HRP. How it is done: as §1

For test [3], the target named is T6, control peptide A2E-13/HLA-A*02:01 complex on T2 cells (member of the P19 mixture) (human).
T6 construct: Loaded on T2 cells as part of the mixture of 19 control peptides
The test can be described thus: flow cytometry, phage on T2 cells. How it is done: as §1

Test [4] concerns the target T7, control peptide A2E-8/HLA-A*02:01 complex on T2 cells (member of the P19 mixture) (human).
T7 construct: Loaded on T2 cells as part of the mixture of 19 control peptides
The test can be described thus: flow cytometry, phage on T2 cells. How it is done:
as §1

The target in test [5] is T8, control peptide A2E-3/HLA-A*02:01 complex on T2 cells (member of the P19 mixture) (human).
T8 construct: Loaded on T2 cells as part of the mixture of 19 control peptides
The test can be described thus: flow cytometry, phage on T2 cells. How it is done: as §1

The target of test [6] is T9, control peptide A2E-7/HLA-A*02:01 complex on T2 cells (member of the P19 mixture) (human).
T9 construct: Loaded on T2 cells as part of the mixture of 19 control peptides
The test can be described thus: flow cytometry, phage on T2 cells. How it is done: as §1

Test [7] has as its target T10, control peptide A2E-23/HLA-A*02:01 complex on T2 cells (member of the P19 mixture) (human).
T10 construct: Loaded on T2 cells as part of the mixture of 19 control peptides
The test can be described thus: flow cytometry, phage on T2 cells. How it is done: as §1

Test [8] deals with T11, control peptide A2E-19/HLA-A*02:01 complex on T2 cells (member of the P19 mixture) (human).
T11 construct: Loaded on T2 cells as part of the mixture of 19 control peptides
The test can be described thus: flow cytometry, phage on T2 cells. How it is done:
as §1

Test [9] has as its target T12, control peptide A2E-9/HLA-A*02:01 complex on T2 cells (member of the P19 mixture) (human).
T12 construct: Loaded on T2 cells as part of the mixture of 19 control peptides
The test can be described thus: flow cytometry, phage on T2 cells. How it is done: as §1

In test [10] the target is T13, control peptide A2E-4/HLA-A*02:01 complex on T2 cells (member of the P19 mixture) (human).
T13 construct: Loaded on T2 cells as part of the mixture of 19 control peptides
The test can be described thus: flow cytometry, phage on T2 cells. How it is done:
as §1

The target in test [11] is T14, control peptide A2E-16/HLA-A*02:01 complex on T2 cells (member of the P19 mixture) (human).
T14 construct: Loaded on T2 cells as part of the mixture of 19 control peptides
The test can be described thus: flow cytometry, phage on T2 cells. How it is done: as §1

Test [12] addresses T15, control peptide A2E-11/HLA-A*02:01 complex on T2 cells (member of the P19 mixture) (human).
T15 construct: Loaded on T2 cells as part of the mixture of 19 control peptides
The test can be described thus: flow cytometry, phage on T2 cells. How it is done:
as §1

For test [13], the target named is T16, control peptide A2E-5/HLA-A*02:01 complex on T2 cells (member of the P19 mixture) (human).
T16 construct: Loaded on T2 cells as part of the mixture of 19 control peptides
The test can be described thus: flow cytometry, phage on T2 cells. How it is done:
as §1

The target of test [14] is T17, control peptide A2E-2/HLA-A*02:01 complex on T2 cells (member of the P19 mixture) (human).
T17 construct: Loaded on T2 cells as part of the mixture of 19 control peptides
The test can be described thus: flow cytometry, phage on T2 cells. How it is done: as §1

In test [15] the target is T18, control peptide A2E-14/HLA-A*02:01 complex on T2 cells (member of the P19 mixture) (human).
T18 construct: Loaded on T2 cells as part of the mixture of 19 control peptides
The test can be described thus: flow cytometry, phage on T2 cells. How it is done:
as §1

In test [16] the target is T19, control peptide A2E-15/HLA-A*02:01 complex on T2 cells (member of the P19 mixture) (human).
T19 construct: Loaded on T2 cells as part of the mixture of 19 control peptides
The test can be described thus: flow cytometry, phage on T2 cells. How it is done: as §1

For test [17], the target named is T20, control peptide A2E-21/HLA-A*02:01 complex on T2 cells (member of the P19 mixture) (human).
T20 construct: Loaded on T2 cells as part of the mixture of 19 control peptides
The test can be described thus: flow cytometry, phage on T2 cells. How it is done:
as §1

The target of test [18] is T21, control peptide A2E-10/HLA-A*02:01 complex on T2 cells (member of the P19 mixture) (human).
T21 construct: Loaded on T2 cells as part of the mixture of 19 control peptides
The test can be described thus: flow cytometry, phage on T2 cells. How it is done: as §1

The target of test [19] is T22, control peptide A2E-17/HLA-A*02:01 complex on T2 cells (member of the P19 mixture) (human).
T22 construct: Loaded on T2 cells as part of the mixture of 19 control peptides
The test can be described thus: flow cytometry, phage on T2 cells. How it is done:
as §1

For test [20], the target named is T23, control peptide A2E-1/HLA-A*02:01 complex on T2 cells (member of the P19 mixture) (human).
T23 construct: Loaded on T2 cells as part of the mixture of 19 control peptides
The test can be described thus: flow cytometry, phage on T2 cells. How it is done: as §1

In test [21] the target is T24, control peptide A2E-6/HLA-A*02:01 complex on T2 cells (member of the P19 mixture) (human).
T24 construct: Loaded on T2 cells as part of the mixture of 19 control peptides
The test can be described thus: flow cytometry, phage on T2 cells. How it is done: as §1

B1: PSA146/HLA-A*02:01-specific scFv phage clone #3 (scFv, V domains shown)
VH: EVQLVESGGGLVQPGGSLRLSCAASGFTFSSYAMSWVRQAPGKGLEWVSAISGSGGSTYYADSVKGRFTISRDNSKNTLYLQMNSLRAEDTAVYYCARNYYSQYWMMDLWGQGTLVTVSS
VL: QSVLTQPPSVSGAPGQRVTISCTGSSSNFGAGYDVHWYQQLPGAAPKLLIYGDTNRPSGVPDRFSGSKSGTSASLAITGLQAEDEADYYCQSYDTSLSGSVFGGGTKLTVLG
Regarding B1, the binding result in [1] is “binds”; in test [2], “no binding”; with Bio-P19 member A2E-9 it was “no binding”; with Bio-P19 member A2E-19, “no binding”; with Bio-P19 member A2E-4, “no binding”; in [3], “no binding”. The binding result in test [4], in test [5], in test [6], in test [7], in [8] and in [9] was “no binding” in each case. Moreover, the binding result in [10], in [11], in test [12], in test [13], in [14] and in [15] was “no binding” in each case. Moreover, the binding result in test [16], in test [17], in test [18], in [19], in test [20] and in test [21] was “no binding” throughout.

B2: PSA146/HLA-A*02:01-specific scFv phage clone #5 (scFv, V domains shown)
VH: QVQLVQSGAEVKKPGDSVKVSCKPSGYNFLNYGINWVRQAPGQGLEWMGWISTYTGNTNYAQKLQGRVTFTTDTSTSTAYMEMRSLRSDDTAVYYCARSSEYYTWDHWGQGTLVTVSS
VL: QSVLTQPPSVSGAPGQRVTISCTGSSSNIGAGYDVHWYQQLPGTAPKLLIYGNSNRPSGVPDRFSGSKSGTSASLAITGLQAEDEADYYCQSYDSSLSGWVFGGGTKLTVLG
On to B2, for which the binding result in test [1] was “binds”; in test [2], “no binding”; in the test with Bio-P19 member A2E-9, “no binding”; with Bio-P19 member A2E-19, “no binding”; with Bio-P19 member A2E-4, “no binding”; in test [3] it was “no binding”. In addition, the binding result in test [4], in test [5], in test [6], in [7], in test [8] and in test [9] was “no binding” throughout. Moreover, the binding result in test [10], in test [11], in test [12], in test [13], in [14] and in test [15] was “no binding” each time. Besides, the binding result in test [16], in test [17], in test [18], in test [19], in test [20] and in test [21] was “no binding” in each case.

B3: PSA146/HLA-A*02:01-specific scFv phage clone #2 (scFv, V domains shown)
VH: EVQLVQSGAEVKRPGSSVKVSCKASGGTFSSYAINWVRRAPGQGLEWMGKIIPIPGITNYAQKFQDRVTFTADTSTNIAYMELSSLRSEDTAMYYCARSYKWGSSLVDAWGQGTLVTVSS
VL: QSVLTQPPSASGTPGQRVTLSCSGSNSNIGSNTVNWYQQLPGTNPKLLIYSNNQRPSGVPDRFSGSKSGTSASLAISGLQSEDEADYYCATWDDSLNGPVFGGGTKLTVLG
As to B3, the binding result was “binds” in test [1]; “no binding” in [2]; “no binding” in the test with Bio-P19 member A2E-9; “no binding” in the test with Bio-P19 member A2E-19; “no binding” with Bio-P19 member A2E-4; “no binding” in test [3]. The binding result in [4], in test [5], in test [6], in test [7], in [8] and in test [9] was “no binding” in each case. In addition, the binding result in [10], in test [11], in [12], in test [13], in test [14] and in test [15] was “no binding” in each case. Besides, the binding result in [16], in test [17], in test [18], in test [19], in test [20] and in [21] was “no binding” each time.

These data come from US20200087400A1 (EUREKA THERAPEUTICS, published 2020).
